Test results taken from patent US20140072563A1 (Regeneron, published 2014).
Substitutions are numbered along the chain they refer to. In names and notes the source's numbering stands.

T1: ErbB3-mFc (human)
T1 construct: Dimeric soluble ErbB3; also called hErbB3.mFc
T1 chain: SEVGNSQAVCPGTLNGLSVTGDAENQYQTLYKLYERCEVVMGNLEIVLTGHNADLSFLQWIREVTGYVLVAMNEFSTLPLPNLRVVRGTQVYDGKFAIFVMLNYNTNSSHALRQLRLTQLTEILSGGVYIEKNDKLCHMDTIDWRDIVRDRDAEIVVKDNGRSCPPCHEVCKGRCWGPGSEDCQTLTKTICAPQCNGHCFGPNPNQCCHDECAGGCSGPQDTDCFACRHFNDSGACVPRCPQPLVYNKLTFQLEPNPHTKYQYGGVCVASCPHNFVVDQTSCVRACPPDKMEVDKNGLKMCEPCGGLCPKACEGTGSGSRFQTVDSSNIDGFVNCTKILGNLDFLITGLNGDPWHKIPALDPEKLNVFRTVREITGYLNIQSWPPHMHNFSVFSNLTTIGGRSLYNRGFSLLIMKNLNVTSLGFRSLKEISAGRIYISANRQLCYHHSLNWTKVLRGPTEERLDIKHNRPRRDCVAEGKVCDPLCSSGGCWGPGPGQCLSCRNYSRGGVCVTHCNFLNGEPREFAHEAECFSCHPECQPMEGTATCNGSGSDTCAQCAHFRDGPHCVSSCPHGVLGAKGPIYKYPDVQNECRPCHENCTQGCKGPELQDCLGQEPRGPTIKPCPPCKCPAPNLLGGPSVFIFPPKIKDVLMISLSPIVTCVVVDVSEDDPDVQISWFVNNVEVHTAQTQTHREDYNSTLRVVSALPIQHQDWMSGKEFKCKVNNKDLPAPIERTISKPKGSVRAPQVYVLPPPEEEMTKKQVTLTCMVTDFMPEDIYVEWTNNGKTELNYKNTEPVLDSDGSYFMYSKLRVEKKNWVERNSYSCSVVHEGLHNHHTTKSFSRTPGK

B1: H2M1824N (antibody, mouse IgG2, V domains shown)
VH: EVQLVESGGGVVRPGGSLRLSCAASGFTFDDYGMSWVRQAPGKGLECVSGINWNGGSTDYADSVKGRFTISRDNAKNSLYLQMNSLRAEDTASYYCARDGGDWDYFDLWGRGTLVTVSS
VL: EIVMTQSPATLSVSPGERATLSCRASQSVSSNLAWYQQKPGQAPRLLIYGASTRATGIPARFSGSGSGTEFTLTISSLQSEDFAVYFCQEYNDWPLTFGGGTKVEIK
B2: H2M1827N (antibody, mouse IgG2, V domains shown)
VH: B1 VH with N52S, S57N, S93L, Y95H
VL: B1 VL with V3L, V85I, F87Y
B3: H1M1819N (antibody, V domains shown)
VH: EVQLVESGGGVVRPGGSLRLSCAASGFTFDDYAMHWVRQAPGKGLEWVAGISWNSGSIDYADSVKGRFTISRDNAKNSLYLQMNSLRAGDTALYYCAKDILDLDYYGLDVWGQGTTVTVSS
VL: DIQMTQSPSSLSASVGDRVTITCRASQDISSYLAWYQQKPGKVPNLLIYDASSLQSGVPSRFSGSGSGTDFTLTLSSLQPEDFASYYCQNYNSAPYTFGQGTKLEIK
B4: H1M1828N (antibody, V domains shown)
VH: EVQLVESGGGLVQPGRSLRLSCAASGFTFDDYAMYWVRQAPGKGLEWVSGISWNSGSIGYADSVKGRFTISRDNAKNSLYLQMDSLRAEDTALYYCARDMMEVDLYGMDVWGQGTTVTVSS
VL: DIQMTQSPSSVSASVGDRVTITCRASQDISSWLAWYQQKPGTAPKFLIYETSSLQSGVPSRFSGSGSGTDFILTISSLQPEDFATYYCQQTDSFPHTFGQGTKLEIR
B5: H2M1821N (antibody, mouse IgG2, V domains shown)
VH: EVQLVESGGGLVQPGRSLRLSCAASGFTFDDYAMHWVRQAPGKGLEWVSSISWNSGSIGYADSVKGRFTISRDNAKNSLYLQMNSLKPEDTALYYCTKDTDYGDYLDAFDIWGQGTMVAVAS
VL: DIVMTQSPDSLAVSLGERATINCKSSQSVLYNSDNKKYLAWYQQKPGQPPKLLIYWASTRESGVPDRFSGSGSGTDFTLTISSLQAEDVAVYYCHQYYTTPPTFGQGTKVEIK
B6: H4H2146P (antibody, human IgG4, V domains shown)
VH: QVQLVESGGGVVQPGRSLRLSCAASGFTFINYGIHWVRQGPGKGLEWVAVIWYDGSNEWYADSVKGRFTISRDNSKNTVYLEMNKLRAEDTAVYYCAREEEDYGMDVWGQGTTVTVSS
VL: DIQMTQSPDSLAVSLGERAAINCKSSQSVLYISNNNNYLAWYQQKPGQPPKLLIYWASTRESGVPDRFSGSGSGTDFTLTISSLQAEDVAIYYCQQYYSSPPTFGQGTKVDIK
notes: Human IgG4 Fc (prefix H4H)
B7: H4H2138P (antibody, human IgG4, V domains shown)
VH: QVQLQESGPGLVKPSQTLSLTCTVSGGSINSGGYYWSWIRQHPGKGLEWIGYISYSGNTNYNPSLKSRVTISVDTSKNQFSLTLTSVTAADTAVYYCARDSDVDTGLVDGFDVWGQGTMVTVSS
VL: DIVMTQSPSSVSASVGDRVTITCRASQGVSSWLAWYQQKPGKAPKLLIYTTSSLQSGVPSRFSGSGSGTDFTLTISSLQPEDFATYYCQQSNSFPFTFGPGTKVEIK
notes: Human IgG4 Fc (prefix H4H)
B8: H4H2140P (antibody, human IgG4, V domains shown)
VH: EVQLVESGGGLVQPGGSLRLSCAASGFSVSYYDMHWVRQVTGKGLEWVSAIGPAGDTYYPGSVKGRFTISREDATNSLYLQIHSLGAGDTAVYYCAREGAIAARPDDYYGMDVWGQGTTVTVSS
VL: DIQLTQSPSFLSASVGDRVTITCWASQDISSYLAWYQQKPGKAPKLLIYAASTLQSGVPSRFSGSGSGTEFTLTISSLQPEDFATYYCQQLNSYPLTFGGGTKVEIKR
notes: Human IgG4 Fc (prefix H4H)
B9: H4H2147P (antibody, human IgG4, V domains shown)
VH: QVQLVESGGGLVKPGGSLRLSCAASGFTFSDFNMGWIRQAPGKGLEWVSHISGSGNVIYYADSVKGRFAISRDNGKNSLYLQVNSLRAEDTAVYYCARDIGDSDAFDIWGQGTMVTVSS
VL: B8 VL with A50G, Q55E, F83V, S93T
notes: Human IgG4 Fc (prefix H4H)
B10: H4H2143P (antibody, human IgG4, V domains shown)
VH: EVQLVESGGGLVQPGRSLRLSCAASGFTFGDYAMHWVRQAPGKGLEWVSGINLNSGTIGYADSVKGRFTISRDNAKNSLYLQMNSLRAEDTAFYYCAKDIDGYYHYAMDVWGQGTTVTVSS
VL: B8 VL with I2V, Q3V, L4M, D28G, A50D, Q55E, S77N, L91V
notes: Human IgG4 Fc (prefix H4H)
B11: H4H2114P (antibody, human IgG4, V domains shown)
VH: QVQLVESGGGVVQPGRSLRLSCAASGFTFSSYGMHWVRQAPGKGLEWVAGMSYDGSSKYYEDSVKGRFTISRDNSKNTLNLQMNSLRVEDTAVYYCAKERDYVEYVDSYYGMDVWGQGTTVTVSA
VL: AIQMTQSPSSLSASVGDRVTITCRASQGIRNDLGWYQQKPGKAPKVLIYAASSLQSGVPSRFSGSGSGTVFTLTISSLQPEDFATYYCLQDYNYPLTFGGGTKVEIKR
notes: Human IgG4 Fc (prefix H4H)
B12: H4H2151P (antibody, human IgG4, V domains shown)
VH: QVQLVESGGGVVQPGRSLRLSCAASGFTFSNYGMHWVRQAPGKGLEWVARIWYDGSNKYYADSVKGRFTISRDSSKNTLYLQMNSLRAEDTAVYYCAREGEQNLDYYPLDVWGQGTTVTVSS
VL: DIVMTQSPSSLSASVGDRVTITCRASQDIRNDLGWYQQKPGKAPKLLIYAASSLQTGVPSRFSGSVSGTDFTLTISSLQPEDFATYYCLQDYTYPLTFGGGTKVEIK
notes: Human IgG4 Fc (prefix H4H)
B13: H4H2290P (antibody, human IgG4, V domains shown)
VH: EVQLLESGGGLVQPGGSLRLSCVASGFTFSSFAMSWVRQAPGKGLEWVSVISGSGGSTNHADSVRGRFTISRDNSLNTVYLQMHSLRAEDTALYYCVKAETSSSYFYYGMDVWGQGTTVTVSS
VL: DIQLTQSPSFLSASVGDRVTITCWASQDISSYLAWYQQKPGKVPNLLIYGASSLQPGVPSRFSGSGSGTEFTLTISSLQPEDFATYYCQQLNNYPTFGGGTKLEIKR
notes: Human IgG4 Fc (prefix H4H)
B14: H4H2148P (antibody, human IgG4, V domains shown)
VH: EVQLVESGGGLVHPGRSLRLSCAASGFTFDDYAMHWVRQSPGKGLEWVSGISWNSVIKHSTDSVRGRFTISRDNAKNSLYLQMNSLKPEDTAFYYCAKDEDDWNYLDYWGQGTLVTVSS
VL: DIQMTQSPSSVSASVGDRVTITCRASQDINSWLAWYQQKPGKAPKLLIYTSSNLQSGVPSRFSGSGSGTDFTLTISSLQPEDFATYYCQQSDSFPFTFGPGTKVDIKR
notes: Human IgG4 Fc (prefix H4H)
B15: H4H2154P (antibody, human IgG4, V domains shown)
VH: QVQLQESGPGLINPSQTLSVTCTVSGGSISSGGYYWTWIRQHPGKGLEWIGYISYSGNTNYNPSLKSRVTISVDTAKNQFSLKLSSVTAADTAVYFCARDSDVDTAMVDGIDIWGQGTMVTVSS
VL: B14 VL with N30S, K42R, S51A, N53S, Y87F, S91A, D92N
notes: Human IgG4 Fc (prefix H4H)
B16: H4H2132P (antibody, human IgG4, V domains shown)
VH: EVQLVESGGGVVRPGGSLRLSCAASGFTFDDYGMSWVRQFPGKGLEWVSSIDGNGGNTGYSDSVKGRFTISRDNAKNSLHLQMNSLRAEDTALYHCARDPDYDSVWGNYRPFDYWGQGTLVTVSS
VL: DIVMTQSPDSLAVSLGERATINCKSSQSVLSSSNDNNYLAWFQQKPGQPPNLLIYWASTRDSGVPDRFSASGSGTDFTLAISSLQAEDVAVYYCHQYYSSPPTFGQGTKVEIKR
notes: Human IgG4 Fc (prefix H4H)
B17: H4H2153P (antibody, human IgG4, V domains shown)
VH: QVQLVQSGAEVKKPGASVKVSCKASGYTFTRYGISWVRQAPGLGLEWMGWISAYDGYTNFAQKFQGRFTMTTDTSTNTAYMELRGLRSDDTAVYYCAREEEDAAFDIWGQGTMVTVSS
VL: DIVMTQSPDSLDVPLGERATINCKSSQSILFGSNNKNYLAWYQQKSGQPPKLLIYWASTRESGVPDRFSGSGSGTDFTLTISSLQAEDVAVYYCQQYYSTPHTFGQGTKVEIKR
notes: Human IgG4 Fc (prefix H4H)

What follows are binders tested against ErbB3 (cell surface, on MCF-7, DU145, A431 and MCF7 cells) (human, UniProt P21860 20-1342) (assay: cell-based or functional assay).

Percent inhibition of Akt phosphorylation, 0.01 µg/ml ErbB3 antibody, DU145 cells + 0.5 nM NRG1 [%] | Percent inhibition of Akt phosphorylation, 0.1 µg/ml ErbB3 antibody, DU145 cells + 0.5 nM NRG1 [%] | Percent inhibition of Akt phosphorylation, 0.5 µg/ml ErbB3 antibody, DU145 cells + 0.5 nM NRG1 [%] | Binder
25 | 63 | 74 | B1
16 | 73 | 75 | B2
29 | 72 | 75 | B3
22 | 66 | 75 | B4
11 | 68 | 73 | B5

Molecular target: T1, ErbB3-mFc
Assay: blocking ELISA: antibody (0-50 nM) + 50 pM ErbB3-mFc, binding to coated neuregulin1b
From the text: To further characterize anti-hErbB3 mAbs of the present invention, their ability to block ligand binding was examined via ELISA. […] Plates were washed and non-sequestered (plate bound) ErbB3 was detected with an anti-Fc poly conjugated with horseradish peroxidase (HRP). Plates were developed with TMB (3,3′,5,5′-tetramethylbenzidine) and neutralized with sulfuric acid before reading absorbance at 450 nm on a Victor X5 plate reader. Data analysis used a sigmoidal dose-response model within Prism™ software. […] Maximal blocking for each antibody was calculated by taking the difference in absorbance from zero to 50 nM antibody on the inhibition curve, divided by the difference in absorbance from 50 pM to zero ErbB3 on the dose curve.

IC50 [nM] | Maximal Blocking (%) | Binder
0.177 | 83 | B6
0.106 | 96 | B7
0.0946 | 83 | B8
0.0506 | 99 | B9
0.0835 | 92 | B10
0.163 | 91 | B11
0.0751 | 85 | B12
0.0664 | 99 | B13
0.0508 | 100 | B14
0.0901 | 91 | B15
0.0957 | 94 | B16
0.074 | 82 | B17
